B1: YIR006C (protein, UniProt P32521 1-1480, looked up)
Actin cytoskeleton-regulatory …: MYNPYQQQGMGYQQQQQQQQQQPNGFYPQQQQGQSSNQPQGQPQPQQQMAFNQPQATGIGGMPQSFGNSFSSMPQQPQTGYNNNGNNGSVYGNGNFGQQPQQQQQQAKPQHTGYVPNSSMPMMNTTGTMPPPNPAQQPQLQSIQPQGTGYYQAANTANVHSVQPLQSQGTGYYVSTPNLISSNQTQQPLQAQGTGYYQSQPQQVPPPQQAQSLQPLKPQQTGFYLQPQNQAPLEPLKPTATGFVNSFANNGLNNDIKIPAIRLSFITAQDQAKFETLFRSIVTNGSNTVSGANCRKILMRSGLPPSQLARIWTLCDTSKAGELLFPEFALAMHLINDVLQGDTIPYELDSKTKNEVSSFIDAINLSIANQDSSANDAPKTPFDEFITAGVQNLQPQPTGYMPQTSFGIPLQSQITGGGVASALNPQSTGFMAPTTFNMSMNTGTPGLNPQITGGAPASMQPNITGNALQPQTTGMMPQTTGMMPQTTGMMPQTSFGVNLGPQLTGGALQSQYTGGYGSVMPQQSGPASMPNLSFNQQGLQSQLTGLQPQPTGFLPPSNFSATMPLTAQKTGFGNNEIYTKSNFNNNLIDNSSQDKISTEEKSLFYKIFETFDTQNKGLLDSPTAVEIFRKSGLNRADLEQIWNLCDINNTGQLNKQEFALGMHLVYGKLNGKPIPNVLPSSLIPSSTKLLDNLKNQLKTEPTTTKEKPSFGKIDALSYKNNDDDVLPNYRNRRKVYSAKNEEQSSFSSPSAKSVNHSSSTLQTDDISVDKTVEKKTAKPKYAGFSREINLKNIASLENEIKNISNPENCYDSSIPSDLTSRFDAIIAKLPNLFNEISTIDNEITNAKIQLYRKKNPSSIIGSGPNGEITENDRKKAKSRALLRARMSALTGKSTESEDSLSMEDEQQSAEIKRIQQENGKNQEIIKDIRSSISDISASLKSTMTGSNMISNQEFERWEFGIGLEDGVREFLDDLKSNSNKSVTESSPFVPSSTPTPVDDRSSSPSYSQFKTAEERAAYLKEQAKKRMKEKLAKFDKNRRNVTQSSRSISSENSREQPQQIAGSSNLVEPRATPFQEEKYVEVAQPTQPVQSTQPVQPTQPVQPTQPVQPTQPVQPTQPVQPTQPVQNVYNAKQESDDEDEDDEEKRLQEELKRLKLKKKADKEKRLAALRKQIEDAQNESDEEETNGKDNFGGHVNVPQAAPVAPSAAFSQNSTNAPRSVHAAVTPAAGKNSTGLPSTTMGHNPYFKDASASSTSTFDARAAEMQRRIQRGLDEDEDDGWSDEDESNNRVAVDNKVEEAKIGHPDHARAPPVTAAPLPSVTPVPPAVPVPQANTSNEKSSPIPIAPIPPSVTQEPPVPLAPPLPAVDGFQEPPIPSAPAIATAVQKSGSSTPALAGGVLPPPPPLPTQQASTSEPIIAHVDNYNGAEKGTGAYGSDSDDDVLSIPESVGTDEEEEGAQPVSTAGIPSIPPAGIPPPPPLP
B2: YIR003W (protein, UniProt P40563 1-679, looked up)
Altered inheritance of …: MPSEVTPKVPERPSRRKTSELFPLSGSESGDIKANSEPPTPAGTPNVPTRRPILKAKTMTSFESGMDQESLPKVPLQRPVRRSTTEELNNVMNNTSKELEEIESLISKHNIHNVSRKKSPTSVEEGKVAAIHQNGQRSASDNKTSTNPSPLEKNEHEGAEGNESAISPSNLVNKSNNEVTEHSDSEDLTEKQKVHAALDNEAGDRSHFEEKLIPGDMKVQVDVSKDVEEGSLNALPPSGITESDDKAEKFTKHPESSLEELQKHQEQQEEKIFQNPTDEESTTSLNEKQEGKDNMEVNSQPQGPSDTETVIAATSSNVPSQIASEEENDVPVIPRSRPKKDFEAHVQKEELPNTQEKRVSEECDSTLISTEEESKIPKIPSERPKRRAPPPVPKKPSSRIAAFQEMLQKQQQQDLHNNGNSSATTASADIAKKHTDSSITSDTTKADFTSKLNGLFALPGMVNPGQLPPSLEKKLSSPDTESKLGPQDQSQAKTGPLGGTRRGRGPRGRKLPSKVASVEKIEEDDNTNKIEIFNNWNVSSSFSKEKVLIDTTPGEQAERALDEKSKSIPEEQREQSPNKMEAALCPFELDEKEKLPANAESDPLSQLPQTNAVGNRKAISEESLSPSEAIANRDQNDTTEIQEQQMEDQMEVDMERELSGGYEDVDSALHSEEASFHSL
B3: YLR337C (protein, UniProt P37370 1-817, looked up)
Verprolin: MAGAPAPPPPPPPPALGGSAPKPAKSVMQGRDALLGDIRKGMKLKKAETNDRSAPIVGGGVVSSASGSSGTVSSKGPSMSAPPIPGMGAPQLGDILAGGIPKLKHINNNASTKPSPSASAPPIPGAVPSVAAPPIPNAPLSPAPAVPSIPSSSAPPIPDIPSSAAPPIPIVPSSPAPPLPLSGASAPKVPQNRPHMPSVRPAHRSHQRKSSNISLPSVSAPPLPSASLPTHVSNPPQAPPPPPTPTIGLDSKNIKPTDNAVSPPSSEVPAGGLPFLAEINARRSERGAVEGVSSTKIQTENHKSPSQPPLPSSAPPIPTSHAPPLPPTAPPPPSLPNVTSAPKKATSAPAPPPPPLPAAMSSASTNSVKATPVPPTLAPPLPNTTSVPPNKASSMPAPPPPPPPPPGAFSTSSALSASSIPLAPLPPPPPPSVATSVPSAPPPPPTLTTNKPSASSKQSKISSSSSSSAVTPGGPLPFLAEIQKKRDDRFVVGGDTGYTTQDKQEDVIGSSKDDNVRPSPISPSINPPKQSSQNGMSFLDEIESKLHKQTSSNAFNAPPPHTDAMAPPLPPSAPPPPITSLPTPTASGDDHTNDKSETVLGMKKAKAPALPGHVPPPPVPPVLSDDSKNNVPAASLLHDVLPSSNLEKPPSPPVAAAPPLPTFSAPSLPQQSVSTSIPSPPPVAPTLSVRTETESISKNPTKSPPPPPSPSTMDTGTSNSPSKNLKQRLFSTGGSTLQHKHNTHTNQPDVDVGRYTIGGSNSIVGAKSGNERIVIDDSRFKWTNVSQMPKPRPFQNKTKLYPSGKGSSVPLDLTLFT
B4: YOR042W (protein, UniProt Q08412 1-411, looked up)
Ubiquitin-binding protein CUE5: MEEKEGIKDSSLLEKSNVPESINEDISKTTDVDLNSDGKKDNDTSAKDGTPKVEEKVNKSSGIDEDEVVTPAEDAKEEEEEHPPLPARRKSEEEPSKENPILQELKDAFPNLEEKYIKAVIIASQGVLSPAFNALLFLSDPESGKDIELPTQPVRKNPEAPARRRQTQLEQDELLARQLDEQFNSSHSRRRNRDRATRSMHEQRRRRHNPNEREQHHEDSEEEDSWSQFVEKDLPELTDRAGRSLQDTANKVSNWISDAYRRNFASGNEQNDNQHGHQDQQEWEPEIVDLSQGGKNSRPQQPERRRFNSFGVQVGDDSLESHGITLHNEDGFEDDEDVPPQLPTRTKSGESTGKVVAETTYIDTPDTETKKKWQPLPPEPLDTTPTKVNAVSRNKKNPDEDEFLINSDDEM

Test system: BBC1
Assay: DHFR-PCA on solid medium, bait BBC1 (Fig. 1B)
Assay type: cell-based, Saccharomyces cerevisiae
Conditions: bait BBC1, label = prey; 2-4 replicates
Description: (§1) Supplement 41467_2021_21873_MOESM8_ESM.xlsx, sheet "Fig1B" | column: medsize; medrep; Ratio; Score

Going from B1 to B2, the “medrep (log2 median colony size normalized to plate background, PCA score)” value rises from 1.896 to 5.119.

First: B3
Second: B4
The “medrep (log2 median colony size normalized to plate background, PCA score)” value of the first is higher: 2.429 for the first, 1.718 for the second.

Same assay, conditions: bait BBC1, label = prey; only significant differences showed; PPIs completely lost have a ratio of 0.1 and the gained PPIs 2.5

First: B1
Second: B3
The “Ratio (SH3-deleted/WT medrep)” value of the first is lower: 0.4416 for the first, 0.57 for the second.

In the case of B4, the “Ratio (SH3-deleted/WT medrep)” value is reported as 0.1.

Test system: ABP1
Assay: DHFR-PCA on solid medium, bait ABP1 (Fig. 1B)
Assay type: cell-based, Saccharomyces cerevisiae
Conditions: bait ABP1, label = prey; 2-4 replicates
Description: as §1

First: B1
Second: B2
The “medrep (log2 median colony size normalized to plate background, PCA score)” value of the first is higher: 5.062 for the first, 4.768 for the second.

Compared with B3, B4 is lower in “medrep (log2 median colony size normalized to plate background, PCA score)” value: 4.481 for the first, 4.057 for the second.

Test system: 575 putative partners (preys) of 22 WT SH3-containing proteins
Assay: DHFR-PCA on solid medium, WT and SH3-deleted baits (Fig. 1B)
Assay type: cell-based, Saccharomyces cerevisiae
Set-up: key to Score: 0: SH3-independent; 1: SH3-dependent PPIs; 2: SH3-inhibited PPIs
Conditions: bait SLA1-2, DHFR-PCA, label = prey; Replicates 4 (2 for YCR009C, YDR388W)
How it was run: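 In S. cerevisiae, 22 SH3-containing baits fused genomically to DHFR F[1,2], either WT or with each SH3 replaced via CRISPR by a poly-Gly/Ser linker, screened against 575 DHFR F[3] preys plus 40 negative controls in 1536 arrays, preys duplicated at randomized positions.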

B2 and B3 are within 0.2 log units of each other in “medrep (log2 median colony size normalized to plate background, PCA score)” value: 2.274 for the first, 2.095 for the second.

B4 was tested, and the “medrep (log2 median colony size normalized to plate background, PCA score)” value was 2.528.

Same assay, conditions: bait SLA1-2, label = prey

B2 and B3 are the same in Score: 1 for the first, 1 for the second.

Work on B4 yielded a Score of 1.

Same assay, conditions: bait SLA1-2, label = prey; only significant differences shown; PPIs completely lost have a ratio of 0.1, gained PPIs 2.5

First: B2
Second: B3
The “Ratio (SH3-deleted/WT medrep)” value of the first is lower: 0.1 for the first, 0.4282 for the second.

For B4, the “Ratio (SH3-deleted/WT medrep)” value was 0.1.

Same assay, conditions: bait SLA1-3, DHFR-PCA, label = prey; Replicates 4 (2 for YCR009C, YDR388W, YIL033C)

Compared with B1, B2 is lower in “medrep (log2 median colony size normalized to plate background, PCA score)” value: 4.7899 for the first, 2.274 for the second.

Compared with B3, B4 is lower in “medrep (log2 median colony size normalized to plate background, PCA score)” value: 4.892 for the first, 2.528 for the second.

Same assay, conditions: bait SLA1-3, label = prey

B1 and B2 are the same in Score: 0 for the first, 0 for the second.

B3 and B4 are the same in Score: 0 for the first, 0 for the second.

— article PMC7954794, “Protein context shapes the specificity of SH3 domain-mediated interactions in vivo” (Nature Communications, 2021)
